Reference: patent US20240376225A1 (CHILDREN S MEDICAL CENTER, published 2024)
Residue numbers refer to the chain shown, from its start. Read-outs that look alike come from different tables or passages of the source. One block for each binder: values may come before it.

How the values were obtained:
insulin = insulin (UniProt P01308); test: polyreactivity ELISA on coated insulin; third number of the cell
human CD21 protein [1] = target: T1, human CD21 protein (human, UniProt P20023 21-971, limits assumed); test: SPR (Biacore)
T1 construct: the Biacore set-up is not described; also called huCD21; CR2
T1 sequence (looked up): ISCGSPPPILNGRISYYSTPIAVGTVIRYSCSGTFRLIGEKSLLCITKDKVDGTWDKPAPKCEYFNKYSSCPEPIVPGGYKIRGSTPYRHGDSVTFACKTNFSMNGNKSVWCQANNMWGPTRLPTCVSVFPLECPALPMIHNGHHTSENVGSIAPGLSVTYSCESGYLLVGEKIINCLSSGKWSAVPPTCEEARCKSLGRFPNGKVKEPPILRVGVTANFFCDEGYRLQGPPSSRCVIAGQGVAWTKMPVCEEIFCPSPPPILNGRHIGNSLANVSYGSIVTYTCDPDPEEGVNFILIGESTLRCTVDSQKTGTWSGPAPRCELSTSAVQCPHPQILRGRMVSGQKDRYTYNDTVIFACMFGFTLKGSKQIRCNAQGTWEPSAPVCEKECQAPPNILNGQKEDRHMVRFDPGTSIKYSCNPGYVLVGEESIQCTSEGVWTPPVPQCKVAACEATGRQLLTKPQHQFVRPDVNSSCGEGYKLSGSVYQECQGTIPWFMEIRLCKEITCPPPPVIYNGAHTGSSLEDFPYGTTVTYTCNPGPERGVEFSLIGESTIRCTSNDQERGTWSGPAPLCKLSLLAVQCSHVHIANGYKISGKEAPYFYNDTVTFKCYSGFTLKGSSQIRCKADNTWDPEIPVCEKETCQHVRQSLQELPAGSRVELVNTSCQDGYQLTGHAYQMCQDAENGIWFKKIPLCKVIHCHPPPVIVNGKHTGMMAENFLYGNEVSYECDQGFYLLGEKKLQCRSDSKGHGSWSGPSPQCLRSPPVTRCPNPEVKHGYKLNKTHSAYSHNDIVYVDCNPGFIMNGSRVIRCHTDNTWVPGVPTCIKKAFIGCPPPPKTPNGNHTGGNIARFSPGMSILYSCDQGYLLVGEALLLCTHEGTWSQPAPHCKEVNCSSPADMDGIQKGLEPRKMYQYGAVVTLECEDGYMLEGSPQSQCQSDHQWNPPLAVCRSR

human CD21 protein [2] = target: T1, human CD21 protein; test: affinity KD; method not restated (Biacore elsewhere)
[3] = target: T2, human CD21 on Raji B cells or primary B cells (human, UniProt P20023 21-1033); test: cell-based or functional assay
T2 sequence (looked up): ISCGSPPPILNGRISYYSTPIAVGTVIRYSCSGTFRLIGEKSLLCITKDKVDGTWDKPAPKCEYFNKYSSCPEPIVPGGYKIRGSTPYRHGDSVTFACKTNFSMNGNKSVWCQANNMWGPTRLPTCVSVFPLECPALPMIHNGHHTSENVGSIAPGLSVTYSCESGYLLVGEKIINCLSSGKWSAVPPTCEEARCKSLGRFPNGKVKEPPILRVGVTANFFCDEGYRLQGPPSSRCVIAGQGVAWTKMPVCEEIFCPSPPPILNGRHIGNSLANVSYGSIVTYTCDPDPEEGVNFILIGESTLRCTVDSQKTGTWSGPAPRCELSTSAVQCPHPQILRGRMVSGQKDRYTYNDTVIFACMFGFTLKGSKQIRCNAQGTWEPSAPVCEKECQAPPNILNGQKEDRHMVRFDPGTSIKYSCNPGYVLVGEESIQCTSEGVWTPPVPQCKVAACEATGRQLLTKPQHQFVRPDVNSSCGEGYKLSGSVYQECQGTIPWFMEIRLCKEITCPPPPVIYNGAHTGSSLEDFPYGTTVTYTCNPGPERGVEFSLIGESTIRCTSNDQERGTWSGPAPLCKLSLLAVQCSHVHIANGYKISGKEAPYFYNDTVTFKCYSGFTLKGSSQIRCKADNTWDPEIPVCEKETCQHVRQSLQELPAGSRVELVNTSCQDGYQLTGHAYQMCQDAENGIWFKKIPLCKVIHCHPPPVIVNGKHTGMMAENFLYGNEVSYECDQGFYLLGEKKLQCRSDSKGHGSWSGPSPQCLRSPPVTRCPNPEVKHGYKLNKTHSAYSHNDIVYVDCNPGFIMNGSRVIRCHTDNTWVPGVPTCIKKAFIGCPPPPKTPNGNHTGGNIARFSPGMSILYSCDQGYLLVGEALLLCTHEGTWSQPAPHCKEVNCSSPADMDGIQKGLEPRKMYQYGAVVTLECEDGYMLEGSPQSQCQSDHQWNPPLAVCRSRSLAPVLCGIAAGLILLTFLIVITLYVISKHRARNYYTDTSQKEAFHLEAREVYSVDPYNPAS

[4] = target: cyno CD21 protein (cynomolgus monkey); test: SPR (Biacore)
[5] = target: T2, human CD21 on Raji B cells or primary B …; test: cell-based or functional assay; remark: listed apart in the source
[6] = target: cyno CD21 protein (cynomolgus monkey); test: affinity KD; method not restated (Biacore elsewhere)
human CD21 protein [7] = target: T1, human CD21 protein; test: SPR (Biacore), KD against Ab89
human CD21 protein [8] = target: T1, human CD21 protein; test: SPR (Biacore); remark: listed apart in the source
[9] = target: cyno CD21 protein (cynomolgus monkey); test: SPR (Biacore), KD against Ab89
[10] = target: T2, human CD21 on Raji B cells or primary B …; test: competition with human C3d on primary B cells
[11] = target: T2, human CD21 on Raji B cells or primary B …; test: competition with human C3d on Raji B cells
[12] = target: cyno CD21 protein (cynomolgus monkey); test: SPR (Biacore); remark: listed apart in the source

insulin, sequence (P01308 25-54 limits assumed, chain 1 of 2): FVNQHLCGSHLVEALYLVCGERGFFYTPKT
insulin, sequence (P01308 90-110 limits assumed, chain 2 of 2): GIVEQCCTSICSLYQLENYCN

- insulin-binding score (ratio to buffer well) (insulin): 2
- Kd (human CD21 protein [1]): 0.78 nM
- Kd (human CD21 protein [2]): 0.78 nM
- pAKT inhibition, IC50, nM; Primary B cells [3]: 14.6 nM
- pAKT inhibition, IC50, nM; Raji B cells [3]: 8.59 nM
- Kd [4]: 9.13 nM
- pAKT inhibition, IC50, nM; Primary B cells [5]: 14.6 nM
- pAKT inhibition, IC50, nM; Raji B cells [5]: 8.59 nM
- Kd [6]: 9.73 nM
B1: Ab416 (antibody, human IgG1, kappa, V domains shown)
VH: QVQLVQSGAEVKKPGSSVKVSCKASGGTFSSYAISWVRQAPGQGLEWMGRIIPILGIANYAQKFQGRVTITADKSTSTAYMELSSLRSEDTAVYYCAREDDSSGYYQDWGQGTLVTVSS
VL: EIVMTQSPATLSVSPGERATLSCRAGQSINSYLAWYQQKPGQAPRLLIYDASTRATGIPARFSGSGSGTEFTLTISSLQSEDFAVYYCQQYEYWYTFGQGTKLEIKR
notes: IgG1

- fold improvement of affinity over Ab89 (human CD21 protein [7]): ~81 fold
- Kd (human CD21 protein [8]): 0.81 nM
- fold improvement of KD over Ab89 [9]: 2 fold
- IC50 [10]: 6 pM
- IC50 [11]: 9 pM
- Kd [12]: 9.16 nM
B2: Ab194 (antibody, human IgG1, kappa, V domains shown)
VH: B1 VH with S31T
VL: B1 VL
notes: full-length human IgG1

- Kd (human CD21 protein [2]): 0.02 nM
- Kd [6]: 0.15 nM
B3: Ab627 (antibody, human IgG1, kappa, V domains shown)
VH: B1 VH with D100E, S102I
VL: B1 VL with S28K, N30S, T96S
notes: IgG1

- Kd (human CD21 protein [2]): 0.03 nM
- Kd [6]: 0.19 nM
B4: Ab631 (antibody, human IgG1, kappa, V domains shown)
VH: B1 VH with D100E, S102I
VL: B1 VL with S28K, N30S, T53S, T96S
notes: IgG1

- insulin-binding score (ratio to buffer well) (insulin): 2
- Kd (human CD21 protein [1]): 0.02 nM
- Kd (human CD21 protein [2]): 0.02 nM
- pAKT inhibition, IC50, nM; Primary B cells [3]: 3.94 nM
- pAKT inhibition, IC50, nM; Raji B cells [3]: 8.91 nM
- Kd [4]: 0.08 nM
- pAKT inhibition, IC50, nM; Primary B cells [5]: 3.94 nM
- pAKT inhibition, IC50, nM; Raji B cells [5]: 8.91 nM
- Kd [6]: 0.08 nM
B5: Ab417 (antibody, human IgG1, kappa, V domains shown)
VH: B1 VH with T28E, F29L, S30Q, S31D, Y32L, S102I
VL: B1 VL
notes: IgG1

- Kd (human CD21 protein [2]): 0.02 nM
- Kd [6]: 0.12 nM
B6: Ab633 (antibody, human IgG1, kappa, V domains shown)
VH: B1 VH with D100E, S102I
VL: B1 VL with N30S, S31R, T53S, T96S
notes: IgG1

- insulin-binding score (ratio to buffer well) (insulin): 2
- Kd (human CD21 protein [1]): 0.05 nM
- Kd (human CD21 protein [2]): 0.05 nM
- pAKT inhibition, IC50, nM; Primary B cells [3]: 11.6 nM
- pAKT inhibition, IC50, nM; Raji B cells [3]: 9.38 nM
- Kd [4]: 0.03 nM
- pAKT inhibition, IC50, nM; Primary B cells [5]: 11.6 nM
- pAKT inhibition, IC50, nM; Raji B cells [5]: 9.38 nM
- Kd [6]: 0.03 nM
B7: Ab424 (antibody, human IgG1, kappa, V domains shown)
VH: B1 VH with S31T, S102I
VL: B1 VL
notes: IgG1

- insulin-binding score (ratio to buffer well) (insulin): 2
- Kd (human CD21 protein [1]): 2.38 nM
- Kd (human CD21 protein [2]): 2.38 nM
- pAKT inhibition, IC50, nM; Primary B cells [3]: 47.8 nM
- pAKT inhibition, IC50, nM; Raji B cells [3]: 11.2 nM
- Kd [4]: 0.21 nM
- pAKT inhibition, IC50, nM; Primary B cells [5]: 47.8 nM
- pAKT inhibition, IC50, nM; Raji B cells [5]: 11.2 nM
- Kd [6]: 0.21 nM
B8: Ab419 (antibody, human IgG1, kappa, V domains shown)
VH: B1 VH with T28E, F29L, S30Q, S31T, Y32L, S102I
VL: B1 VL with Y32H
notes: IgG1

- Kd (human CD21 protein [2]): 0.02 nM
- Kd [6]: 0.1 nM
B9: Ab629 (antibody, human IgG1, kappa, V domains shown)
VH: B1 VH with D100E, S102I
VL: B1 VL with N30S, S31R, T96S
notes: IgG1

- Kd (human CD21 protein [2]): 0.01 nM
- pAKT inhibition, IC50, nM; Primary B cells [5]: 4.43 nM
- Kd [6]: 0.08 nM
B10: Ab632 (antibody, human IgG1, kappa, V domains shown)
VH: B1 VH with D100E, S102I
VL: B1 VL with N30S, S31H, T53S, T96S
notes: IgG1

- insulin-binding score (ratio to buffer well) (insulin): 2
- Kd (human CD21 protein [1]): 2.26 nM
- Kd (human CD21 protein [2]): 2.26 nM
- pAKT inhibition, IC50, nM; Primary B cells [3]: 61.1 nM
- pAKT inhibition, IC50, nM; Raji B cells [3]: 26.2 nM
- Kd [4]: 0.22 nM
- pAKT inhibition, IC50, nM; Primary B cells [5]: 61.1 nM
- pAKT inhibition, IC50, nM; Raji B cells [5]: 26.2 nM
- Kd [6]: 0.22 nM
B11: Ab420 (antibody, human IgG1, kappa, V domains shown)
VH: B1 VH with S102I
VL: B1 VL with Y32H
notes: IgG1

- Kd (human CD21 protein [2]): 0.01 nM
- Kd [6]: 0.09 nM
B12: Ab630 (antibody, human IgG1, kappa, V domains shown)
VH: B1 VH with D100E, S102I
VL: B1 VL with E1D, N30S, T53S, T96S
notes: IgG1

- insulin-binding score (ratio to buffer well) (insulin): 2
- Kd (human CD21 protein [1]): 2.26 nM
- Kd (human CD21 protein [2]): 2.26 nM
- pAKT inhibition, IC50, nM; Primary B cells [3]: 56.2 nM
- pAKT inhibition, IC50, nM; Raji B cells [3]: 8.59 nM
- Kd [4]: 0.25 nM
- pAKT inhibition, IC50, nM; Primary B cells [5]: 56.2 nM
- pAKT inhibition, IC50, nM; Raji B cells [5]: 8.59 nM
- Kd [6]: 0.25 nM
B13: Ab421 (antibody, human IgG1, kappa, V domains shown)
VH: B1 VH with S31T, S102I
VL: B1 VL with Y32H
notes: IgG1

- Kd (human CD21 protein [2]): 0.01 nM
- pAKT inhibition, IC50, nM; Primary B cells [5]: 11.7 nM
- Kd [6]: 0.11 nM
B14: Ab628 (antibody, human IgG1, kappa, V domains shown)
VH: B1 VH with D100E, S102I
VL: B1 VL with N30S, S31H, T96S
notes: IgG1

- fold improvement of affinity over Ab89 (human CD21 protein [7]): ~81 fold
- Kd (human CD21 protein [8]): 0.81 nM
- fold improvement of KD over Ab89 [9]: 357 fold
- IC50 [10]: 7 pM
- IC50 [11]: 5 pM
- Kd [12]: 0.06 nM
B15: Ab204 (antibody, human IgG1, kappa, V domains shown)
VH: B1 VH with T28E, F29L, S30Q, S31D, Y32L, S102I
VL: B1 VL with Y32H
notes: full-length human IgG1

- insulin-binding score (ratio to buffer well) (insulin): 2
- Kd (human CD21 protein [1]): 0.04 nM
- Kd (human CD21 protein [2]): 0.04 nM
- pAKT inhibition, IC50, nM; Primary B cells [3]: 9.98 nM
- pAKT inhibition, IC50, nM; Raji B cells [3]: 15.8 nM
- Kd [4]: 0.24 nM
- pAKT inhibition, IC50, nM; Primary B cells [5]: 9.98 nM
- pAKT inhibition, IC50, nM; Raji B cells [5]: 15.8 nM
- Kd [6]: 0.24 nM
B16: Ab422 (antibody, human IgG1, kappa, V domains shown)
VH: B1 VH with T28E, F29L, S30Q, S31T, Y32L, S102I
VL: B1 VL
notes: IgG1
